Measurements published in patent US20240285753A1 (DUKE UNIVERSITY, published 2024).

Molecular target: MERS spike (2P) (MERS-CoV, UniProt K9N5Q8 18-1291)
Assay: ELISA, coated spike, mAb titrated

B1: DH1509 (antibody, V domains shown)
VH: QVQLVESGGGVVQPGRSLRLSCAASGFTLSSHGIHWVRQAPGKGLEWVAVTSFDGRNKKFGDSVKGRFTISRDNSKNTVYLQMNSLRTEDTAVYYCAKDWGDDYSRWYFDLWGRGTLVTVSS
VL: DIQMTQSPSSLSASVGDRVTITCQASHDITKYLNWYQQKPGRAPKLLIYDASNLKTGVPSRFSGSGSGTDFTFTITSLQPEDLATYYCQQSDVLPITFGQGTRLEIK
  EC50 (read off the curve): ~0.2 µg/mL
